In patent publication US20110166062A1 (INDIANA UNIVERSITY RESEARCH AND TECHNOLOGY, published 2011):
*1 amine or outer side, *2 acyl side, *3 side chain or, on linkers, in order; H or OH if unused. Bridges are numbered along the chain shown (N, C = ends). Primed or numbered codes have the meaning given here. Where no end group is shown, it is not given here. Side-chain parts run from the residue outwards. [ ]: non-standard residue; d: D form. The star is where a group is joined. Cys(PEG 40 kDa) = Cys with a 40 kDa PEG covalently attached to its side chain (alpha amino acetyl-capped, Ac); PEG 40 kDa″ = polyethylene glycol of 40 kDa covalently attached to the side chain; γGlu = O=C(O)[C@H](CCC(=O)[*:2])N[*:1]; Palmitoyl = CCCCCCCCCCCCCCCC(=O)*; Myristoyl = CCCCCCCCCCCCCC(=O)*; PEG = not defined here; Aib = CC(C)(N)C(=O)O

T1: GIP receptor (UniProt P48546 22-466)
T1 sequence (looked up): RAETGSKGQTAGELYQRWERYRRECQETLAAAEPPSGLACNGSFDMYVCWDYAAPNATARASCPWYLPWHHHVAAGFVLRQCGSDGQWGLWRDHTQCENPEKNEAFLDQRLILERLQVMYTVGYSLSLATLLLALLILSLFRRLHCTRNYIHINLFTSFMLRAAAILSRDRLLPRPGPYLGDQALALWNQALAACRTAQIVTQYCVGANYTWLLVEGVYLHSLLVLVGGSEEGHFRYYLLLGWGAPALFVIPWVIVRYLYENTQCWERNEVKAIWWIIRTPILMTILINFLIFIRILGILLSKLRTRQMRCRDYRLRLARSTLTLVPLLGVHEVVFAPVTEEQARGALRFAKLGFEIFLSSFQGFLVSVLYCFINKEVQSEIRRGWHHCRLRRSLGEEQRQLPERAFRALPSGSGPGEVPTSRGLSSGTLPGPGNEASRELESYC

T2: GIP receptor (UniProt P48546 22-466)
T2 sequence (looked up): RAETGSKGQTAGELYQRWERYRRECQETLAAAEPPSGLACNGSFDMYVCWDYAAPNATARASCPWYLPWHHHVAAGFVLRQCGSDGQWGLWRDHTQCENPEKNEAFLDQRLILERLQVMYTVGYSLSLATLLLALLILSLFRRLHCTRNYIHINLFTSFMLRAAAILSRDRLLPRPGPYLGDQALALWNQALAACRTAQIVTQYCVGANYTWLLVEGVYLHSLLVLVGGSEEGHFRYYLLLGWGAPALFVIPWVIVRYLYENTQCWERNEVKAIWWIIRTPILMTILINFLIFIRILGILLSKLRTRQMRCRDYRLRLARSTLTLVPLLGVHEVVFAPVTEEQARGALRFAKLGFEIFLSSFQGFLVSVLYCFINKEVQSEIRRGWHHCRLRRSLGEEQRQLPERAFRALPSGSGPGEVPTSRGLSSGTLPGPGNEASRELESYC


Key:
Test in all cases: cell-based or functional assay
[1] = biological target: glucagon receptor (UniProt P47871 26-477, limits assumed)
Target sequence in this assay (P47871 26-477 limits assumed): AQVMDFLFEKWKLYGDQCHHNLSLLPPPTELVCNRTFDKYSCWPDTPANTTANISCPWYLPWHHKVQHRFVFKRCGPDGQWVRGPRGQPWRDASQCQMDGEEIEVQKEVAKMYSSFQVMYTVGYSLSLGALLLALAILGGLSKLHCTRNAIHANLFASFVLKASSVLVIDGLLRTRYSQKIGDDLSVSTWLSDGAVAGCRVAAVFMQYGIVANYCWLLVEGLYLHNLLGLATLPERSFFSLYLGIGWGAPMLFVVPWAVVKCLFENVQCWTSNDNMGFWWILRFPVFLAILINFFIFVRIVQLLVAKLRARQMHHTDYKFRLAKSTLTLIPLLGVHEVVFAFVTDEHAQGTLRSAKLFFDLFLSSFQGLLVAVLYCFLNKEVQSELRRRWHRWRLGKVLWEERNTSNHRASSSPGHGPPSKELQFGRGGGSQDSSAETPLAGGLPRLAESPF

[2] = biological target: T1, GIP receptor
[3] = biological target: GLP-1 receptor (UniProt P43220 24-463, limits assumed)
[4] = biological target: glucagon receptor (UniProt P47871 26-477, limits assumed); remark: listed apart in the source
Target sequence in this assay (P47871 26-477 limits assumed): as above

[5] = biological target: T2, GIP receptor; remark: listed apart in the source
[6] = biological target: GLP-1 receptor (UniProt P43220 24-463, limits assumed); remark: listed apart in the source

Row | Binder | EC50, nM; Glucagon Receptor [1] | relative activity; Glucagon Receptor [1] | EC50, nM; GIP Receptor [2] | relative activity; GIP Receptor [2] | EC50, nM; GLP-1 Receptor [3] | relative activity; GLP-1 Receptor [3] | EC50 [4] | relative activity [4] | EC50 [5] | relative activity [5] | EC50 [6] | relative activity [6]
1 | Y[Aib]EGTFTSDYSIYLDKQAA[Aib]EFVNWLLAGGPSSGAPPPSK(Myristoyl)C-NH2 (also: homodimer: two monomers linked by a disulfide bond between their C-terminal Cys41 residues) [mt-354] | 2.61 nM | 1.45% | 0.0046 nM | 91.7% | 0.0088 nM | 137% | – | – | – | – | – | –
2 | Y[Aib]QGTFTSDYSIYLD[Aib]QAAKEFVNWLLAGGPSSGAPPPSC-NH2 (N-terminus assumed; SMILES CC[C@H](C)[C@H](NC(=O)[C@H](CO)NC(=O)[C@H](Cc1ccc(O)cc1)NC(=O)[C@H](CC(=O)O)NC(=O)[C@H](CO)NC(=O)[C@@H](NC(=O)[C@H](Cc1ccccc1)NC(=O)[C@@H](NC(=O)CNC(=O)[C@H](CCC(N)=O)NC(=O)C(C)(C)NC(=O)[C@@H](N)Cc1ccc(O)cc1)[C@@H](C)O)[C@@H](C)O)C(=O)N[C@@H](Cc1ccc(O)cc1)C(=O)N[C@@H](CC(C)C)C(=O)N[C@@H](CC(=O)O)C(=O)NC(C)(C)C(=O)N[C@@H](CCC(N)=O)C(=O)N[C@@H](C)C(=O)N[C@@H](C)C(=O)N[C@@H](CCCCN)C(=O)N[C@@H](CCC(=O)O)C(=O)N[C@@H](Cc1ccccc1)C(=O)N[C@H](C(=O)N[C@@H](CC(N)=O)C(=O)N[C@@H](Cc1c[nH]c2ccccc12)C(=O)N[C@@H](CC(C)C)C(=O)N[C@@H](CC(C)C)C(=O)N[C@@H](C)C(=O)NCC(=O)NCC(=O)N1CCC[C@H]1C(=O)N[C@@H](CO)C(=O)N[C@@H](CO)C(=O)NCC(=O)N[C@@H](C)C(=O)N1CCC[C@H]1C(=O)N1CCC[C@H]1C(=O)N1CCC[C@H]1C(=O)N[C@@H](CO)C(=O)N[C@@H](CS)C(N)=O)C(C)C) [mt-241] | – | – | – | – | – | – | 2.84 nM | 3.73% | 0.252 nM | 4.37% | 0.023 nM | 130%
3 | Y[Aib]QGTFTSDYSIYLDKQAA[Aib]EFVNWLMNGGPSSGAPPPSK-NH2 (N-terminus assumed; SMILES CC[C@H](C)[C@H](NC(=O)[C@H](CO)NC(=O)[C@H](Cc1ccc(O)cc1)NC(=O)[C@H](CC(=O)O)NC(=O)[C@H](CO)NC(=O)[C@@H](NC(=O)[C@H](Cc1ccccc1)NC(=O)[C@@H](NC(=O)CNC(=O)[C@H](CCC(N)=O)NC(=O)C(C)(C)NC(=O)[C@@H](N)Cc1ccc(O)cc1)[C@@H](C)O)[C@@H](C)O)C(=O)N[C@@H](Cc1ccc(O)cc1)C(=O)N[C@@H](CC(C)C)C(=O)N[C@@H](CC(=O)O)C(=O)N[C@@H](CCCCN)C(=O)N[C@@H](CCC(N)=O)C(=O)N[C@@H](C)C(=O)N[C@@H](C)C(=O)NC(C)(C)C(=O)N[C@@H](CCC(=O)O)C(=O)N[C@@H](Cc1ccccc1)C(=O)N[C@H](C(=O)N[C@@H](CC(N)=O)C(=O)N[C@@H](Cc1c[nH]c2ccccc12)C(=O)N[C@@H](CC(C)C)C(=O)N[C@@H](CCSC)C(=O)N[C@@H](CC(N)=O)C(=O)NCC(=O)NCC(=O)N1CCC[C@H]1C(=O)N[C@@H](CO)C(=O)N[C@@H](CO)C(=O)NCC(=O)N[C@@H](C)C(=O)N1CCC[C@H]1C(=O)N1CCC[C@H]1C(=O)N1CCC[C@H]1C(=O)N[C@@H](CO)C(=O)N[C@@H](CCCCN)C(N)=O)C(C)C) [mt-356] | 0.0869 nM | 126% | 0.053 nM | 25.7% | 0.0048 nM | 224% | – | – | – | – | – | –
4 | Y[Aib]EGTFTSDYSIYLDKQAA[Aib]EFVNWLLAGGPSSGAPPPSK([γGlu-γGlu-Palmitoyl])-NH2 [mt-367] | 0.82 nM | – | 0.0014 nM | – | 0.0039 nM | – | – | – | – | – | – | –
5 | Y[Aib]QGTFISDYSIYLDKQAA[Aib]EFVNWLLAGGPSSGAPPPSK-NH2 (N-terminus assumed; SMILES CC[C@H](C)[C@H](NC(=O)[C@H](CO)NC(=O)[C@H](Cc1ccc(O)cc1)NC(=O)[C@H](CC(=O)O)NC(=O)[C@H](CO)NC(=O)[C@@H](NC(=O)[C@H](Cc1ccccc1)NC(=O)[C@@H](NC(=O)CNC(=O)[C@H](CCC(N)=O)NC(=O)C(C)(C)NC(=O)[C@@H](N)Cc1ccc(O)cc1)[C@@H](C)O)[C@@H](C)CC)C(=O)N[C@@H](Cc1ccc(O)cc1)C(=O)N[C@@H](CC(C)C)C(=O)N[C@@H](CC(=O)O)C(=O)N[C@@H](CCCCN)C(=O)N[C@@H](CCC(N)=O)C(=O)N[C@@H](C)C(=O)N[C@@H](C)C(=O)NC(C)(C)C(=O)N[C@@H](CCC(=O)O)C(=O)N[C@@H](Cc1ccccc1)C(=O)N[C@H](C(=O)N[C@@H](CC(N)=O)C(=O)N[C@@H](Cc1c[nH]c2ccccc12)C(=O)N[C@@H](CC(C)C)C(=O)N[C@@H](CC(C)C)C(=O)N[C@@H](C)C(=O)NCC(=O)NCC(=O)N1CCC[C@H]1C(=O)N[C@@H](CO)C(=O)N[C@@H](CO)C(=O)NCC(=O)N[C@@H](C)C(=O)N1CCC[C@H]1C(=O)N1CCC[C@H]1C(=O)N1CCC[C@H]1C(=O)N[C@@H](CO)C(=O)N[C@@H](CCCCN)C(N)=O)C(C)C) [mt-357] | 0.042 nM | 261% | 0.0066 nM | 206% | 1.25 nM | 0.86% | – | – | – | – | – | –
6 | Y[Aib]EGTFTSDYSIYLDEQAAKEFVNWLLAGGPSSGAPPPSC(PEG)-NH2 (lactam 16-20; reading uncertain; also: PEG on Cys40 via thioether from haloacetyl) [mt-294] | 230 nM | 0.01% | 0.373 nM | 2.95% | 0.0608 nM | 12.7% | – | – | – | – | – | –
7 | Y[Aib]QGTFTSDYSIYLDEQAAKEFVNWLLAGGPSSGAPPPSK([Ala-Cys(PEG 40 kDa)-Ac])-NH2 (lactam 16-20) [mt-225] | 2.71 nM | – | 1.9 nM | – | 0.098 nM | – | – | – | – | – | – | –
8 | Y[Aib]QGTFTSDYSIYLD[Aib]QAAKEFVNWLLAGGPSSGAPPPSC(PEG 40 kDa″)-NH2 [mt-248] | – | – | – | – | – | – | 16.7 nM | 0.37% | 3.23 nM | 0.53% | 0.103 nM | 9.71%
9 | Y[Aib]QGTFISDYSIYLDKQAA[Aib]EFVNWLLAGGPSSGAPPPSK(Palmitoyl)-NH2 (N-terminus assumed; SMILES CCCCCCCCCCCCCCCC(=O)NCCCC[C@H](NC(=O)[C@H](CO)NC(=O)[C@@H]1CCCN1C(=O)[C@@H]1CCCN1C(=O)[C@@H]1CCCN1C(=O)[C@H](C)NC(=O)CNC(=O)[C@H](CO)NC(=O)[C@H](CO)NC(=O)[C@@H]1CCCN1C(=O)CNC(=O)CNC(=O)[C@H](C)NC(=O)[C@H](CC(C)C)NC(=O)[C@H](CC(C)C)NC(=O)[C@H](Cc1c[nH]c2ccccc12)NC(=O)[C@H](CC(N)=O)NC(=O)[C@@H](NC(=O)[C@H](Cc1ccccc1)NC(=O)[C@H](CCC(=O)O)NC(=O)C(C)(C)NC(=O)[C@H](C)NC(=O)[C@H](C)NC(=O)[C@H](CCC(N)=O)NC(=O)[C@H](CCCCN)NC(=O)[C@H](CC(=O)O)NC(=O)[C@H](CC(C)C)NC(=O)[C@H](Cc1ccc(O)cc1)NC(=O)[C@@H](NC(=O)[C@H](CO)NC(=O)[C@H](Cc1ccc(O)cc1)NC(=O)[C@H](CC(=O)O)NC(=O)[C@H](CO)NC(=O)[C@@H](NC(=O)[C@H](Cc1ccccc1)NC(=O)[C@@H](NC(=O)CNC(=O)[C@H](CCC(N)=O)NC(=O)C(C)(C)NC(=O)[C@@H](N)Cc1ccc(O)cc1)[C@@H](C)O)[C@@H](C)CC)[C@@H](C)CC)C(C)C)C(N)=O) [mt-358] | 0.0087 nM | 1270% | 0.0045 nM | 306% | 0.083 nM | 13% | – | – | – | – | – | –
